Laboratory results reported in the nanobody polyreactivity screen of Harvey et al. (2022).

Assay: yeast display, Sf9 membrane polyspecificity reagent, FACS + sequencing; frameworks hold sequencing errors
Method in brief: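 Sorting gates, low and high (top ~1%), were placed on anti-HA fluorescence to track expression and on streptavidin fluorescence to track reagent binding. A clone's polyreactivity label is taken from the gate it came out of. The reagent was 10% biotinylated, detergent-solubilized Sf9 membrane, applied for 1 hour at 4 °C to galactose-induced yeast display cells.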

Sequence | polyreactivity (PSR sort gate)
QVQLVESGGVLVQAGGSLRLRCAASGRIFSRYTMGWYRQAPGKERELVAAIRNTGSTNYADSVKGRFTISRDNAKNTVYLQMNSLKPEDTAVYYCNARTAYGAYHYYYPQRMDYWGQGTQVTVSS | high polyreactivity
QVQLVESGGVLVQAGGSLRLSCAASGFTFNYYVMGWYRQAPWKERELVATITSVGSTYYADSVKGRFTISRDNAKNTVYLQMNSLKPEDTAVYYCNADWYWRVYWGQGTQVTVSS | high polyreactivity
QVQLVESGGVLVQAGGSLRLSCAASGFTFTPNAMGWYTQAPGKERELVAAIDWNGGSTYYADAVKGRFTISRDNAKNTVYLQMNSLKPEDTAVYYCAADDEEWKVITDYDYWGQGTQVTVSS | low polyreactivity
QVQLVESGGVLVQAGGSLRLSCAASGGIFNQYAMGWYRQAPGKERELVAAISSSGSSTYYADSVKGRFTISRDNAKNTVYLLMNSLKPEDTAVYYCNTYYSYQRVGYWGQGTQVTVSS | high polyreactivity
QVQLVESGGVLVQAGGSLRLSCAASGLNLAPNAMGWYRQAPGKEMELVAAITRSGGDTYYADSVKGRFTISRENAKNTVYLQMNSLKPEDTAVYYCAKARPGFLYDHWGQGTQVTVSS | high polyreactivity
QVQLVESGGVLVQAGGSLRLSCAASGLTFSWYAMGWYRQAPGKERELVASINYSGANTYYADSVKGRFTISRDNAQNTVFLQMNSLKPEDTAVYYCNSRLRRYQNERVTYDYWGQGTQVTVSS | high polyreactivity
QVQLVESGGVLVQAGGSLRLSCAASGRIFRSYALGWYRQAPGKETEFVAAISSGGSTNYADSVKGRFTISRDNAKNTVYLQMNSLKREDTAVYYCAADLWAYTWYWHSDYWGQGTQVTVSS | low polyreactivity
QVQLVESGGVLVQAGGSLRLSCAASGRTFNAYTMGWYRQAPGKERELVAAITSSGGNTYYADSVKGRFTITRDNGKNTVFLQMNSLKPEDTAVYYCNTVYLYGTHDYWGQGTQLTVSS | low polyreactivity
QVQLVESGGVLVQAGGSLRLSCAASGRTFRYYGMGWYRQAPGKERVVAAITWSGDTTYYADSVKGRFTISRDNAKNTVYLQMNSLKPEDTAVYYCAAQSWHRYYYWGQGTQVTVSS | high polyreactivity
QVQLVESGGVLVQAGGSLRLSCAASGRTFSPYAMGWARQAPGKDRELVAAITSRGASTYYADSVKGRFTISRDNAKNTVYLQMNSLKPEDTAVYYCNSGRTYRRLGDYWGQGTQVTVSS | high polyreactivity
QVQLVESGGVLVQAGGSLRLSCAASGRTFYYYAMGWYRQAPGKERELVASISWDGGNTYYADSVKGRFTISRDTAKNTVYLHMNSLKPEDTAVYYCNRRFYHKDDYWGQGTQVTVSS | high polyreactivity
QVQLVESGGVLVQAGGSLRLSCAASGRTLRSYAMGWYRHAPGKERELVAAISRSGGSTYYADSVKGRFTISRDNAKNTVYLQMNSLKPEDTAVYYCATRYLGRLDYWGQGTQVTVSS | high polyreactivity
QVQLVESGGVLVQAGGSLRLSCAASGRTMDPYTMGGYRQAHGKERELVAAITSSGGRTTYADSVKGRFTISRDNAKNYVYLQMNSLKPEDTAVYYCAKKFRPGYRSQYLRYSWGQGTQVTVSS | low polyreactivity
QVQLVESGGVLVQAGGSLRLSCAASGSIFGSYGMGWYRQAPGKERELVAAIRVSGGSTYYADSVKGRFTISRDNAKNTVYLQMNSLKPEDTAVYYCAARARSTPRKYYYTRGYWGQGTQVTVSS | high polyreactivity
QVQLVESGGVLVQAGGSLRLSCAASGSIFGSYTMGWYRQAPGKEREMVAAISGGGASTYYADSVKGRFTISRDNAKNTVYLQMNSLKPEDTAVYYCYKRGVIERRKPWHYSTFDYWGQGTQVTVSS | low polyreactivity
QVQLVESGGVLVQAGGSLRLSCAASGSISYSYAMGWYRQAPGKERELVAAITWGGDSTYYADSVKGRFTISRDNAKNTVYLQMNSLKPEDTAVYYCAADLRFTYPVYRAGGGYDYWGQGTQVTVSS | low polyreactivity
QVQLVESGGVLVQAGGSLRLSCAASGSTFKPYAMGWYRQAPGKEREFVAANSRGTRTYADSVKGRFTISRDNAKNTVSLPMNSLKPEDTAVYYCAAEWSWIFGYHYEYDYGGQGTQVTVSS | low polyreactivity
QVQLVESGGVLVQAGGSLRLSCAASGSTFSRYAMGWYRQAPGKETELVAAINWSGGRTYYADSVKGRFTISRDNAKNTVYLQMNSLIAADTAVYFCAADGRRYSGEYYYWGQGTQVTVSS | high polyreactivity
QVQLVESGGVLVQAGGSLRLSCAASGSTFTDYAMGWYRQAPGKERELVAAITDSGGRTYYADSVKGRFTISRDNAKNTVYLQMNSLKPEDTAVYYCATEDDRWYYWGQGTQVTVSS | high polyreactivity
QVQLVESGGVLVQAGGSLRLSCAASGSTFYYYAMGWYRKAPGKERELVAAISSSGGTTYYADSVKGRFTISRDNAKNTVYLQMNSLKPEDTAVYYCAKYPWYWDEGNSWGQGTQVTVSS | low polyreactivity
QVQLVESGGVLVQAGGSLRLSCAASGSTLGGNAMGWYRQAPGKEMELVAAITSSAGSTYYADSVKGRFTISRDNAKNTVYLQMNSLKPEDTAVYYCDADYSRDEYDYWGQGTQVTVSS | low polyreactivity
QVQLVESGGVLVQAGGSLRLSCAASGYIFGNYAMGWYRQAPGNERELVASIDSGGSTNYADSVKGRFTISRDNAKNTVYLQKNSLKPEDTAVYYWAARPTWNRGRSRKYWRYNYWAQGTQVTVSS | high polyreactivity

Sequence | polyreactivity (PSR sort gate)
QVQLVESGGVLVQAGGSLRLSCAASGYIFYPYAMGWYRQAPGKERELVAAISGSGSGTYYADSVKGRFTISRDNAKNTVYLQMNSLKPEDTAVYYCAKYLYDNVWMDYWGQGTQVTVSS | low polyreactivity
QVQLVESGGVLVQAGGSLRLSCAAYGFIFDYYAMGWYRQAPGKERELVAAITSRGGSTYYADSVKGRFTISRDNAKNTVYLQMNSLKPEDSAVYYCAARRRSAEYNYWGQGTQVTVSS | high polyreactivity
QVQLVESGGVLVQAGGSLRLSCAAYGSTLRRYAMGWYRQAPGKERELVAAISYSGGSTYYADSVKGRFTISRDNAKNTVYLQMNSLKPEDTAVYYCAVVTRKGLYDYWGQGTQVTVSS | high polyreactivity
QVQLVESGGVLVQAGGSLRLSCAPSGFTFYRYAMGWYRQAPGKESELVAAISYSGGRTYYADSVKGRFTISCDIAKNTVYLQMNSLKPEDTAVYYCNARASYGHQGRLGYARLYYWGQGTQVTVSS | high polyreactivity
QVQLVESGGVLVQAGGSLRLSCAPSGYIYSKYAMGWYRQAPGKERELVASITGRGSRTYYADSVKGRFTISRDNAKNTVYLQMNSLKPEDIAVYFCAADWYGQKTSNRWYFRPGYDYWGQGTQVTVSS | high polyreactivity
QVQLVESGGVLVQEGGSLRLSCAASGRIFQIYAMGWYRQAPGKERELFAAISGSTSYADSVKGRFTISRDNAKNTVYLQMNSLKPEDTAVYYCAKRVVRGKVDYWGQGTQVTVSS | low polyreactivity
QVQLVESGGVLVQEGGSLRLSCADSGRIFYSNAMGWYRQAPGKERELVAAISYSGGRTYYADSVKGRFTISRDNAKNTVYLQMNSLIPEDTAVYYCAARYAWGYVDPGDYWGQGTQVTVSS | high polyreactivity
QVQLVESGGVLVQSGGSLRLSCAASGSTFAYYAMGWYRQAPGKERELVAPISWSGGSTYYADSVKVRFTISRDNAKNTVYLQMNSLNPEDTAVYYCNKRNVLDYDYWGQGTQVTVSS | low polyreactivity
QVQLVESGGVLVQSGVSLRLTCAASGITFNYNAMGWDSQAPGKERELVAAIRGSDSTTYYADSVKERFTISRDNAKNTVYLQMNSLKPEDTAVYYCAADYVQGFGFYYQWHYDYWGQGTQVTVSS | low polyreactivity
QVQLVESGGWLVQAGGSLRLSCAASGSSFYGYGMGSYRQAPGKERELVAANTGSGDTTYYADSVKGRFTNSRDNEKNTVYLQMNSLKPEDTAVYYCNARWHAEYDYWGQGTQVTVSS | low polyreactivity
QVQLVESGLGLVQAGGSLRLSCAASGRIFYLNDMGWYRQAPGIERELVADMTRSGGTTYYADSVKGRFTISRDNEKNTVYLQMNSLKPEETSVYYCAAESRFRYVYGVGYRPYLYGYWGQGTQVTVSS | low polyreactivity
QVQLVESGRGIVQAGGSLRLSCAASGSIFGWYAMGWYRQAPGKERELVASNSVTAGSTYYADSVKWRFTISRDNAKNTVYLLMYSLKPVYTAVYYCASDDDTADAVQLFYYWGQGTHVTVSS | low polyreactivity
QVQLVESGRGLDQAGGSLRLSCAASGSIIGANAMGWYRQAPGKERELVAAITDNTSTTFYADSVKGRFTISRDNAKNTVYLQMNSLKPEDTAVYYCNADRAVVLSTTVWGEYDYWGQGTQVTVSS | low polyreactivity
QVQLVESGRGLFQAGGSLRLSCAASGSTFTVNTMGWYRQAPGKERELVDAITKNGANTYYADSVKGRFTISRDNAKNTVYLQMNILKPEDTAVYYCAALYVYGKSYSRWLVELDYWGQGTQVTVSS | low polyreactivity
QVQLVESGRGLLQAGGSLPLSCAASGRIFAYNTMGWYRQAPGKERELVAAISWRGGSTYYADSVKGRFTISRDNAKKTVYFQMNSLKPEDTAVYYCSVLYSSFTRFDYWGQGSQVTVSS | high polyreactivity
QVQLVESGRGLLQAGGSLRLSCAASGSIFYPYVMGWYRQAPGKERELVASISWRGGRTYYADSVKGRFTISRDNAKNTVYLQMNSMKPEDTAVYYCAKRTYDSFYGYYYWGQGTQVTVSS | high polyreactivity
QVQLVESGRGLVLAGGSLRLSCAASGRIFRVNAMGWYRQAPGKERELVAAISRGGNTYYADSVKGRFTISRDNEKNTVSLQMNSLKPEDTAVYYCAASRSWPRMDYWGQGTQVSVSS | high polyreactivity
QVQLVESGRGLVQAGGSLPLSCAASGFIFRRYAMVWYRQAPGKERELVAGISRGGDSTYYADSVKGRFTISRDNAKNTVYLQMNSLKPEDTAVYFCAGQGRDSTPHGYWGQGTQVTVSS | high polyreactivity
QVQLVESGRGLVQAGGSLPLSSASSGLTFKTYAMGRYRQAPGKVSELVAAITSGGTSTYYADSVKGRFTISRDNAKNTVYFQMNSLKPEDTAVYYCAARYYFSYSVGYYYWGQGTQVTVSS | high polyreactivity
QVQLVESGRGLVQAGGSLRISCAASGFIFSKYAMGWYRQAPGKERELVAAISYSGGSTYYADSVKGRFTISRDNAKNTVYLQMNSLKPEDTAVYYCAAEGYGGYEHWGQGTQVTVSS | low polyreactivity
QVQLVESGRGLVQAGGSLRISSAASGFIYRYYAMGWYRQAPGKERELVAAINTGGTTYYADSVKGRFTISRDNAKNTVYFQMNSLKPEDTAVYYCAKRWPRSSLGDYWGQGTQVTVSS | high polyreactivity
